Assay results as given in patent US20210309735A1 (published 2021).
Substitutions are numbered along the chain they refer to.

T1: human IL-17A (human, UniProt Q16552 20-155, limits assumed)
T1 construct: Bought from R&D Systems; also called IL-17 antigen (human IL17A)
T1 sequence (looked up): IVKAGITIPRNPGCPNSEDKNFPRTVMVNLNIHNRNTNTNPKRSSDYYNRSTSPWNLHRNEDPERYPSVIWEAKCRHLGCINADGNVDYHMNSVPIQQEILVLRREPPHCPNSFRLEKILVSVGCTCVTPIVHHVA

T2: mouse IL-17A (mouse, UniProt Q62386 26-158, limits assumed)
T2 sequence (looked up): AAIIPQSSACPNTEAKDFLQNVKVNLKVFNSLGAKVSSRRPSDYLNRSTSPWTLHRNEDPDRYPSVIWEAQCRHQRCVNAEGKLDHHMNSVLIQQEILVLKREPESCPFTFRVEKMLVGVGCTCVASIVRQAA

B1: PP10759 (antibody, human IgG4 S228P, kappa, V domains shown)
VH: EVQLVESGGGLVQPGGSLKLSCVASGFTFSTYGMSWVRQTPDKRLELVAIINHNGGSTFYPDSVKGRFTVSRDNAKNTLHLQMSSLKSEDTAMYYCARDPRHDGYFFDYWGQGTTLTVSS
VL: DIQMTQSSPSFSVSLGDRVTITCKASEDIYDRLAWYQQKPGNAPRLLISGATSLETGIPSRFSGSRSGKDYTLDINSLQTEDAATYYCQQYWSVPWTFGGGTKLEIKR
notes: expressed in HEK293; also called chimeric antibody PP10759; chimeric parental antibody
B2: PP10761 (antibody, human IgG4 S228P, kappa, V domains shown)
VH: EVQLVESGGGLVQPGGSLRLSCAASGFTFSTYGMSWVRQAPGKGLELVSIINHNGGSTFYPDSVKGRFTISRDNSKNTLYLQMNSLRAEDTAVYYCARDPRHDGYFFDYWGQGTLVTVSS
VL: DIQMTQSPSSLSASVGDRVTITCQASEDIYDRLAWYQQKPGKAPKLLISGATSLETGVPSRFSGSGSGKDYTFTISSLQPEDIATYYCQQYWSVPWTFGGGTKVEIKR
notes: Humanized, human IgG4/kappa; also called VH6665/VL6666
B3: PP10768 (antibody, human IgG4 S228P, kappa, V domains shown)
VH: B2 VH with L11V, G16R, S49A
VL: B2 VL with Q24R, K45N, I48V, T56S, F73L, I83F
notes: Humanized, human IgG4/kappa; also called VH6667/VL6667
B4: PP10767 (antibody, human IgG4 S228P, kappa, V domains shown)
VH: B2 VH with L11V, G16R, S49A
VL: B2 VL
notes: Humanized, human IgG4/kappa; also called VH6667/VL6666
B5: PP10762 (antibody, human IgG4 S228P, kappa, V domains shown)
VH: B2 VH
VL: B2 VL with Q24R, K45N, I48V, T56S, F73L, I83F
notes: Humanized, human IgG4/kappa; also called VH6665/VL6667
B6: PP10765 (antibody, human IgG4 S228P, kappa, V domains shown)
VH: B2 VH with S49A, I70V
VL: B2 VL with Q24R, K45N, I48V, T56S, F73L, I83F
notes: Humanized, human IgG4/kappa; also called VH6666/VL6667
B7: PP10760 (antibody, human IgG4 S228P, kappa, V domains shown)
VH: B2 VH
VL: B2 VL with K69T
notes: Humanized, human IgG4/kappa; also called VH6665/VL6665
B8: PP10766 (antibody, human IgG4 S228P, kappa, V domains shown)
VH: B2 VH with L11V, G16R, S49A
VL: B2 VL with K69T
notes: Humanized, human IgG4/kappa; also called VH6667/VL6665
B9: PP10763 (antibody, human IgG4 S228P, kappa, V domains shown)
VH: B2 VH with S49A, I70V
VL: B2 VL with K69T
notes: Humanized, human IgG4/kappa; also called VH6666/VL6665
B10: PP10764 (antibody, human IgG4 S228P, kappa, V domains shown)
VH: B2 VH with S49A, I70V
VL: B2 VL
notes: Humanized, human IgG4/kappa; also called VH6666/VL6666

What was measured:
[1] = biological target: T1, human IL-17A; assay: blocking ELISA, IL-17RA coated; control IgG pre-mixed with human IL-17A 0.1 ug/ml; bound IL-17A detected
[2] = biological target: T1, human IL-17A; assay: blocking ELISA, IL-17RC coated; control IgG pre-mixed with human IL-17A 0.1 ug/ml; bound IL-17A detected
[3] = biological target: T1, human IL-17A; assay: blocking ELISA, IL-17RC coated; control IgG pre-mixed with human IL-17A 0.1 ug/ml; bound IL-17A detected (unblocked signal)
[4] = biological target: T1, human IL-17A; assay: blocking ELISA, IL-17RA coated; control IgG pre-mixed with human IL-17A 0.1 ug/ml; bound IL-17A detected (unblocked signal)
[5] = biological target: T1, human IL-17A; assay: blocking ELISA, IL-17RC coated; antibody 1 ug/ml pre-mixed with human IL-17A 0.1 ug/ml; bound IL-17A detected
Protocol: (§1) Recombinant human IL-17RA or recombinant human IL-17RC (1 μg/ml) were coated on the plate, overnight at 4° C. in the dark and then blocked with 2% BSA for 1 hour at room temperature to reduce non-specific binding. The antibodies PP10759-PP10768 (1 μg/ml) pre-mixed with human IL-17A (0.1 μg/ml final concentration) were added to the ELISA wells for 1 hour at room temperature. The plate was washed with PBS for three times, and then incubated with anti-IL17A polyclonal Ab-biotin (R&D Systems) for 1 hour followed by SAV-HRP. The plate was washed for three times with PBS. TMB, the HRP substrate, was added to each well for color development for 5 minutes at room temperature. Equal amount of 0.1N HCl stop solution was added to each well to terminate the reaction. Raw OD₄₅₀ data was collected by POLARstar Omega from BMG Labtech.
(§2) It can be seen that the antibodies PP10759-PP10768 can effectively block the interaction between IL-17A and IL-17RA as well as IL-17A and IL-17RC.

[6] = biological target: T1, human IL-17A; assay: ELISA, human IL-17A coated at 1 ug/mL, anti-human IgG-HRP detection
Protocol: ELISA plates were coated with 1 μg/mL IL-17 antigen (human IL17A) (R&D Systems) and incubated at 4° C. in the dark overnight. Then it was washed once with 10 mM, pH 7.4 PBS/Tween (0.05%), blocked with PBST containing 2% BSA for 1 hour and incubated at room temperature for 1 h. The antibodies PP10759-PP10768 were diluted in 5-fold increments for a total of eleven data points and were added to the ELISA wells and incubated at room temperature for 1 hour. The plate was washed with PBS for three times, and then incubated with HRP conjugated goat anti-human IgG antibody for 1 hour. The plate was washed three times with PBS. TMB, the HRP substrate, was added to each well for color development for 5 minutes at room temperature. Equal amount of 0.1N HCl stop solution was added to each well to terminate the reaction. Raw OD₄₅₀ data was collected by POLARstar Omega (BMG Labtech). Besides, hFc isotope was regarded as control. It can be seen that the antibodies (i.e. PP10759-PP10768) bind to human IL-17A with high affinity.

[7] = biological target: T1, human IL-17A; assay: BLI (Octet Red96), antibody captured on AHC biosensor, human IL-17A in solution, 1:1 model, 25 C
Protocol: Using the Octet method (Fortebio Octet®), the chimeric parental antibody and the […] (i.e. PP10759-PP10768) were evaluated with Octet Red96 at 25° C. These antibodies were captured on anti-Human Fc (AHC) biosensors at a concentration of 10 μg/mL. Loaded biosensors were then dipped into a dilution of antigen (human IL-17A (R&D Systems), 500 nM start, 1:3 down, 7 points). Kinetic constants were calculated using a monovalent (1:1) model. In FIG. 2A, Figure I, II, III and IV show the results of PP10759, PP10760, PP10761 and PP10762, respectively. In FIG. 2B, Figure I, II, III and IV show the results of PP10763, PP10764, PP10765 and PP10766, respectively. In FIG. 2B, Figure I and II show the results of PP10767 and PP10768, respectively. It can be seen that the antibodies (i.e. PP10759-PP10768) bind to IL-17A with high affinity. […] Secukinuma is a human IgG1κ monoclonal antibody that binds to IL-17A made by Novartis.

[8] = biological target: T1, human IL-17A; assay: blocking ELISA, IL-17RA coated; antibody 1 ug/ml pre-mixed with human IL-17A 0.1 ug/ml; bound IL-17A detected
Protocol: as §1, §2

[9] = biological target: T2, mouse IL-17A; assay: ELISA, mouse IL-17A coated

Molecule	Blocking % [1]	Blocking % [2]	OD450 [3]	OD450 [4]	Blocking % [5]	OD450 [5]	EC50 [6]	Kd [7]	koff [7]	kon [7]	Blocking % [8]	OD450 [8]	binding result [9]
Normal human IgG (antibody)	0%	0%	0.487 OD450	1.39 OD450									
B1					95.2%	0.0888 OD450	5.83 ng/mL	1100 pM	0.00053 s⁻¹	480000 M⁻¹ s⁻¹	99.5%	0.0872 OD450	no binding
B2					99.8%	0.0688 OD450	8.72 ng/mL	< 1 pM	< 1e-07 s⁻¹	400000 M⁻¹ s⁻¹	99.7%	0.0851 OD450	no binding
B3					99.9%	0.0685 OD450	7.67 ng/mL	< 1 pM	< 1e-07 s⁻¹	370000 M⁻¹ s⁻¹	99.5%	0.0869 OD450	no binding
B4					99.9%	0.0684 OD450	7.71 ng/mL	< 1 pM	< 1e-07 s⁻¹	360000 M⁻¹ s⁻¹	98.1%	0.105 OD450	no binding
B5					99.5%	0.0701 OD450	8.26 ng/mL	< 1 pM	< 1e-07 s⁻¹	440000 M⁻¹ s⁻¹	99.6%	0.0846 OD450	no binding
B6					95.2%	0.088 OD450	7.61 ng/mL	130 pM	6.6e-05 s⁻¹	500000 M⁻¹ s⁻¹	89.9%	0.213 OD450	no binding
B7					98%	0.0762 OD450	9.44 ng/mL	310 pM	0.00015 s⁻¹	490000 M⁻¹ s⁻¹	97.8%	0.109 OD450	no binding
B8					100%	0.0682 OD450	7.35 ng/mL	< 1 pM	< 1e-07 s⁻¹	350000 M⁻¹ s⁻¹	94.9%	0.147 OD450	no binding
B9					98.9%	0.0721 OD450	7.28 ng/mL	360 pM	0.00016 s⁻¹	460000 M⁻¹ s⁻¹	90.9%	0.104 OD450	no binding
B10					98.9%	0.0725 OD450	6.61 ng/mL	< 1 pM	< 1e-07 s⁻¹	450000 M⁻¹ s⁻¹	96.5%	0.126 OD450	no binding
